Measured values reported in patent publication US20150320880A1, “ANTIBODY DRUG CONJUGATES” (NOVARTIS AG, priority 2013, published 2015).
Where a chain is given by its changes, count along the chain named.

T1: Mouse cKIT ECD, C-terminal 6x His (Sino Biological Inc, catalog number 50530-M08H) (mouse, UniProt P05532 25-527)
T1 construct: extracellular domain; Bought protein
T1 sequence (looked up): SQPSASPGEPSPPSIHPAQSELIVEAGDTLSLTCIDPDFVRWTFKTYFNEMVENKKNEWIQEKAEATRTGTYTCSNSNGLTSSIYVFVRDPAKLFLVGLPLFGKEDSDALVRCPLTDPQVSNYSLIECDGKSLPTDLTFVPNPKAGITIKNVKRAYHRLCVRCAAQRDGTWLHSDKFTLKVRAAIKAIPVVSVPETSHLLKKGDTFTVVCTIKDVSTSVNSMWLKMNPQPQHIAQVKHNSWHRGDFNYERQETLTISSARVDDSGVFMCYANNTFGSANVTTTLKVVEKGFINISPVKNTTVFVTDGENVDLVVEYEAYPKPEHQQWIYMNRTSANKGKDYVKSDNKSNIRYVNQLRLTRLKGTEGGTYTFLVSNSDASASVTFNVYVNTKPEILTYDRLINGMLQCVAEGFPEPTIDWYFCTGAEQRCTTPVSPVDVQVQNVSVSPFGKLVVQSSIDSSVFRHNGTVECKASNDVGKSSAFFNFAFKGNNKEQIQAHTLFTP

T2: Rat cKIT D1-5 (residues 25-526, C-terminal mFc) (rat)
T2 construct: The entry includes the linker and mouse Fc tag; also called rat cKIT-mFc
T2 chain: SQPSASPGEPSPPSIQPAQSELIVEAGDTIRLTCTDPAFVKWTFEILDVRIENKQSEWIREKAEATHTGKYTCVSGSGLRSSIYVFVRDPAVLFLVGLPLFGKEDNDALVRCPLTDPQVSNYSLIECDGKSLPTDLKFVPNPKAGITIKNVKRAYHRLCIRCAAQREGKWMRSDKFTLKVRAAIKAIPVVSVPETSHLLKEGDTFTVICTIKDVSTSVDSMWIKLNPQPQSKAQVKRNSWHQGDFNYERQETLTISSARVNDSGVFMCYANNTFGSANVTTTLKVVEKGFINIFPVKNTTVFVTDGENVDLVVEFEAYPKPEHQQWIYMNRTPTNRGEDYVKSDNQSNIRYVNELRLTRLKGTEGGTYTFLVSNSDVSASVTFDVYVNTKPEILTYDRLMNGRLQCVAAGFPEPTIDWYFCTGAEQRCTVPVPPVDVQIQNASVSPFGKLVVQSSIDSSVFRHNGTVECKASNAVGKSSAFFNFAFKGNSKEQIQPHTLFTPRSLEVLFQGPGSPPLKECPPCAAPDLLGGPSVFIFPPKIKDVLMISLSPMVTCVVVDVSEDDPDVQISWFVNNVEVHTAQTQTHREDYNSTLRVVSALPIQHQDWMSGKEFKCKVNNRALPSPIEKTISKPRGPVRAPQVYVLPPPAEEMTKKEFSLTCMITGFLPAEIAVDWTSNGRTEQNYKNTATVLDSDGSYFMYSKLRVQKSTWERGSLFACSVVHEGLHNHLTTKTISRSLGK

T3: Cynomolgus monkey cKIT D1-5 (residues 25-520, C-terminal His tag) (cynomolgus monkey, UniProt P10721 25-520 (human entry))
T3 construct: the signal peptide was not part of the protein in the assay; also called cyno cKIT; cynomolgus monkey ECD
T3 chain: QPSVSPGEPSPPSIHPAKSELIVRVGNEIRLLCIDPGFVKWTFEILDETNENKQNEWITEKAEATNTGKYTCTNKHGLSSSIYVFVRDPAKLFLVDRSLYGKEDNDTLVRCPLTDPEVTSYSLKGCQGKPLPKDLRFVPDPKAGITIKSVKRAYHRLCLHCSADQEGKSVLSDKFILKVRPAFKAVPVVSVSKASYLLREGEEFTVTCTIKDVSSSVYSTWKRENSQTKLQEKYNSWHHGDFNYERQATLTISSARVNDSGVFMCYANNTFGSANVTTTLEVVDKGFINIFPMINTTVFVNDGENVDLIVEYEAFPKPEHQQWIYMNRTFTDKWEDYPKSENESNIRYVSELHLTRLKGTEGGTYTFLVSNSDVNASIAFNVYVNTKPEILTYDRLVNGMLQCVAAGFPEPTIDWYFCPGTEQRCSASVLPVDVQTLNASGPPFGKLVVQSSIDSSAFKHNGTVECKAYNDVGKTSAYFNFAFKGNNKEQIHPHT

B1: NEG027: anti-cKIT antibody of Table 1; VH SEQ ID NO 64, VL SEQ ID NO 73 (antibody, V domains shown)
VH: EVQLVESGGGLVQPGGSLRLSCAASGFTFSDYYMAWVRQAPGKGLEWVASINQNTGSTYYLDSVRGRFTISRDNAKNSLYLQMNSLRAEDTAVYYCARGDYYGTTYWYFDVWGQGTTVTVSS
VL: EIVMTQSPATLSLSPGERATLSCRASQDISNYLNWYQQKPGQAPRLLIYYTSRLQSGIPARFSGSGSGTDYTLTISSLEPEDFAVYYCQQGKKLWSFGGGTKVEIK
B2: NEG086: anti-cKIT antibody of Table 1; VH SEQ ID NO 100, VL SEQ ID NO 109 (antibody, V domains shown)
VH: B1 VH with S50N, N54I, T55A, L61V, R65Q
VL: DIQMTQSPSSLSASVGDRVTITCRASQSISSYLNWYQQKPGKAPKLLIYYTSRLQSGVPSRFSGSGSGTDFTLTISSLQPEDFATYYCQQGRRLWSFGGGTKVEIK
B3: NEG087: anti-cKIT antibody of Table 1; VH SEQ ID NO 118, VL SEQ ID NO 127 (antibody, V domains shown)
VH: B1 VH
VL: B2 VL
B4: NEG026 (antibody, human IgG1, kappa, V domains shown)
VH: B1 VH with S50N, L61V, R65Q
VL: EIVMTQSPATLSLSPGERATLSCRASQDISNYLNWYQQKPGQAPRLLIYYTSRLQSGIPARFSGSGSGTDYTLTISSLEPEDFAVYYCQQGKKLWSFGGGTKVEIKR
notes: Humanized, optimized variant of 9P3; human IgG1 kappa
B5: NEG086 (antibody, human IgG1, kappa, V domains shown)
VH: B1 VH with S50N, N54I, T55A, L61V, R65Q
VL: DIQMTQSPSSLSASVGDRVTITCRASQSISSYLNWYQQKPGKAPKLLIYYTSRLQSGVPSRFSGSGSGTDFTLTISSLQPEDFATYYCQQGRRLWSFGGGTKVEIKR
notes: as for B4
B6: NEG024 (antibody, human IgG1, kappa, V domains shown)
VH: B1 VH with S50N, N54I, T55A
VL: B4 VL
notes: as for B4
B7: NEG085 (antibody, human IgG1, kappa, V domains shown)
VH: B1 VH with T28A, D31G, S50N, Q53Y, N54P, T55G, G56S, R65K
VL: B5 VL
notes: Humanized, optimized variant of 9P3; human IgG1 kappa; also called unconjugated NEG085
B8: 20376 (antibody, human IgG1, lambda, V domains shown)
VH: QVQLVQSGAEVKKPGSSVKVSCKASGGTFSSYAISWVRQAPGQGLEWMGGIIPMSGRTTYAQKFQGRVTITADESTSTAYMELSSLRSEDTAVYYCARDYGPEAPDYGQSTSYFWYYAFDPWGQGTLVTVSS
VL: DIELTQPPSVSVSPGQTASITCSGDNIPSYFVHWYQQKPGQAPVLVIYDDNDRPSGIPERFSGSNSGNTATLTISGTQAEDEADYYCSSWDQDTVVFGGGTKLTVLG
notes: human IgG1 lambda
B9: NEG086-MCC-DM1 (antibody, human IgG1, kappa, V domains shown)
VH: B1 VH with S50N, N54I, T55A, L61V, R65Q
VL: B5 VL
modifications: DM1 linked through the MCC (SMCC) linker to primary amines of the antibody, sites not stated; DM1 linked through the MCC (SMCC) linker to primary amines of the antibody, sites not stated; average MAR 3.5 (Table 7)
notes: Antibody drug conjugate of NEG086
B10: NEG085-MCC-DM1 (antibody, human IgG1, kappa, V domains shown)
VH: B1 VH with T28A, D31G, S50N, Q53Y, N54P, T55G, G56S, R65K
VL: B5 VL
modifications: DM1 linked through the MCC (SMCC) linker to primary amines of the antibody, sites not stated; DM1 linked through the MCC (SMCC) linker to primary amines of the antibody, sites not stated; average MAR 3.5 (Table 7)
notes: Antibody drug conjugate of NEG085

These molecules were tested against T4, human cKIT ECD (Homo sapiens, UniProt P10721) (assay: SPR (Biacore 2000) affinity measurement). Details: 25° C.
T4 construct: Human cKIT tr. variant 2, residues 26-520-TAG; made in house; host or cells: HEK293 derived cell lines (293FS), transient transfection
T4 sequence (P10721 with tags, fused parts or gaps isoform P10721-2): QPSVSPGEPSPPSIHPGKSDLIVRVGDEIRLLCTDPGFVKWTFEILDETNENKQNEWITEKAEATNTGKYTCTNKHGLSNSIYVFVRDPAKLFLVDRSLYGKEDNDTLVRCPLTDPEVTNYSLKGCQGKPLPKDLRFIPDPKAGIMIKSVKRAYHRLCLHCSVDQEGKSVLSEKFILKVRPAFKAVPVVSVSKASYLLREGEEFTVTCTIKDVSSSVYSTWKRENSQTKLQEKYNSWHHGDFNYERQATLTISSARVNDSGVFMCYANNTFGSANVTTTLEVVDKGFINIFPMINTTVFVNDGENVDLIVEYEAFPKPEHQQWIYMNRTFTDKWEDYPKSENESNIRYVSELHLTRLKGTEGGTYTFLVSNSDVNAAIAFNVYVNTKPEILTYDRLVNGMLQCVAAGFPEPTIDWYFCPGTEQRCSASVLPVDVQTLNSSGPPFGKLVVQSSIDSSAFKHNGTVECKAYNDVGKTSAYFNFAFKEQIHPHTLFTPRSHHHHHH
Assay type: binding
Method: (§1) Affinity of the antibodies to cKIT species orthologues and also to cKIT was determined using SPR technology using a Biacore® 2000 instrument (GE Healthcare, Pittsburgh, Pa.) and with CM5 sensor chips.
(§2) Briefly, HBS-P (0.01 M HEPES, pH 7.4, 0.15 M NaCl, 0.005% Surfactant P20) supplemented with 2% Odyssey® blocking buffer (Li-Cor Biosciences, Lincoln, Nebr.) was used as the running buffer for all the experiments. The immobilization level and analyte interactions were measured by response unit (RU). Pilot experiments were performed to test and confirm the feasibility of the immobilization of the anti-human Fc antibody (Catalog number BR100839, GE Healthcare, Pittsburgh, Pa.) and the capture of the test antibodies.
(§3) For kinetic measurements, the experiments were performed in which the antibodies were captured to the sensor chip surface via the immobilized anti-human Fc antibody and the ability of the cKIT proteins to bind in free solution was determined Briefly, 25 μg/ml of anti-human Fc antibody at pH 5 was immobilized on a CM5 sensor chip through amine coupling at flow rate of 5 μl/minute on all two flow cells to reach 10,500 RUs. 0.1-1 μg/ml of test antibodies were then injected at 10 μl/min for 1 minute. Captured levels of the antibodies were generally kept below 200 RUs. Subsequently, 3.125-50 nM of cKIT receptor extracellular domains (ECD) were diluted in a 2-fold series and injected at a flow rate of 40 μl/min for 3 min over both reference and test flow cells. Table of tested ECDs is listed below. Dissociation of the binding was followed for 10 min. After each injection cycle, the chip surface was regenerated with 3 M MgCl2 at 10 μl/min for 30 s.

Row | Molecule | Affinity human cKIT (nM)
1 | B1 | nanomolar level
2 | B2 | nanomolar level
3 | B3 | nanomolar level

What follows are molecules tested against mouse cKIT ECD (assay: SPR (Biacore 2000) affinity measurement). Details: 25° C.
Assay type: binding
Method: as §1, §2, §3

Row | Molecule | Affinity mouse cKIT (nM)
4 | B1 | Not reactive
5 | B2 | Not reactive
6 | B3 | Not reactive

Each molecule was assayed against T5, Human cKIT D1-3 (human cKIT tr. variant 1, residues 26-311, tagged) (human, UniProt P10721 26-311) (assay: ELISA on coated cKIT subdomain constructs (Example 6)). Details: not given.
T5 construct: also called cKIT subdomains 1-3
T5 sequence (P10721 other isoform, or with tags, fused parts or gaps mutant limits assumed): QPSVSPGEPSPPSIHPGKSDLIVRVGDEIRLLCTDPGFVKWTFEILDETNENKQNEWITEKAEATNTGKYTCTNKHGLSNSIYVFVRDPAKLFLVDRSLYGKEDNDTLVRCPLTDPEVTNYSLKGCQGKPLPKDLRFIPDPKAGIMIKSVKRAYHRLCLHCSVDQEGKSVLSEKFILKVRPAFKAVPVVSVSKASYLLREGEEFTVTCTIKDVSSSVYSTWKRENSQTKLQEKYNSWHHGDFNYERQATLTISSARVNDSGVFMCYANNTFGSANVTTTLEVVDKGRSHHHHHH

Row | Molecule | binding result
7 | B4 | binds

These molecules were tested against T1, Mouse cKIT ECD, C-terminal 6x His (Sino …) (assay: SPR (Biacore 2000), antibody captured on anti-human Fc). Details: not given.

Row | Molecule | binding result
8 | B5 | no binding (tested: 3.125-50 nM of cKIT ECD injected)
9 | B4 | no binding (tested: 3.125-50 nM of cKIT ECD injected)
10 | B6 | no binding (tested: 3.125-50 nM of cKIT ECD injected)
11 | B7 | no binding (tested: 3.125-50 nM of cKIT ECD injected)

Target: T2, Rat cKIT D1-5 (residues 25-526, …)
Assay: as above
Details: not given

Row | Molecule | binding result
12 | B8 | no binding (tested: 3.125-50 nM of cKIT ECD injected)
13 | B5 | no binding (tested: 3.125-50 nM of cKIT ECD injected)
14 | B4 | no binding (tested: 3.125-50 nM of cKIT ECD injected)
15 | B6 | no binding (tested: 3.125-50 nM of cKIT ECD injected)
16 | B7 | no binding (tested: 3.125-50 nM of cKIT ECD injected)

The molecules below were run against T6, Human cKIT D1-5 (human cKIT tr. variant 2, residues 26-520, C-terminal His tag) (human, UniProt P10721 26-524) (assay: SPR (Biacore T100), CM5 chip, method as in Example 7; MCC-DM1 conjugate). Details: not given.
T6 construct: also called human cKIT ECD; Human c-Kit ECD
T6 sequence (P10721 other isoform, or with tags, fused parts or gaps mutant limits assumed): as the sequence (P10721 with tags, fused parts or gaps isoform P10721-2) above

Row | Molecule | Kd
17 | B9 | 1.8 nM
18 | B10 | 5.2 nM

The molecules below were run against T6, Human cKIT D1-5 (human cKIT tr. variant …) (assay: SPR (Biacore T100), CM5 chip, method as in Example 7; unconjugated antibody). Details: not given.

Row | Molecule | Kd
19 | B8 | 9.1 nM
20 | B5 | 1.4 nM
21 | B6 | 1.3 nM
22 | B7 | 4.2 nM

Each molecule was assayed against T6, Human cKIT D1-5 (human cKIT tr. variant …) (assay: SPR (Biacore 2000), antibody captured on anti-human Fc, cKIT ECD as analyte, 25 C, 1:1 fit). Details: not given.

Row | Molecule | Kd
23 | B8 | 9.1 nM
24 | B5 | 1.44 nM
25 | B6 | 1.31 nM
26 | B7 | 8.4 nM

Target: T3, Cynomolgus monkey cKIT D1-5 (residues …)
Assay: as above
Details: not given

Row | Molecule | Kd
27 | B8 | 4.8 nM
28 | B5 | 1.34 nM
29 | B6 | 1.15 nM
30 | B7 | 6.14 nM

The molecules below were run against T1, Mouse cKIT ECD, C-terminal 6x His (Sino …) in the same assay as above. Details: not given.

Row | Molecule | Kd
31 | B8 | 2.5 nM
